Reference: the supplement of paper PMC10598134
± gives the standard deviation.

Experiment: collision cross section of unmodified peptide (TIMS, N2, iRT-aligned); higher = larger / more extended gas-phase ion
Summary of the method: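 Collision cross section was derived from the Mason-Schamp equation. Each value averages 1–3 technical replicates of the most abundant feature per charge state, measured on a timsTOF Pro/HT in dda-PASEF mode (nitrogen, ~2.4 mbar) after a 120-min nanoflow C18 gradient at 60 °C. Synthetic peptide pools (~100 fmol/µL in 2% acetonitrile/0.1% formic acid, iRT standard spiked 1:40) were identified with MaxQuant, and 1/K0 was calibrated with three reference ions and aligned run-wise to the median iRT peptide deviation.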

| Substance | collision cross section (charge state: 2) [Å²] | collision cross section (charge state: 3) [Å²] |
| --- | --- | --- |
| VPGVGLPGVYPGGVLPGAR | 445.04 ± 0.9 | 532.89 ± 0.34 |
| GEVGAGAGPGAQAGPSAKR | 436.7 ± 2.1 | 469.26 ± 5.9 |
| KITESVAETAQTIK | 420.69 ± 0.66 | 480.58 ± 0.22 |
| SSGPGGQNVNKVNSK | 401.42 ± 1.8 | 447.95 ± 4.2 |
| DFDTALKHYDK | 391.79 ± 0.64 | 447.79 ± 3.3 |
| GGPGGELPRGPQAGLGPR | 431.54 | 491.33 ± 3.4 |
| PGPKGEAGPTGPQGEPGVR | 431.75 ± 0.38 | 479.17 ± 5.1 |
| LLALSGPGGGRGR | 381.45 ± 1.3 | 451.48 ± 1.9 |
| GDAGEPGRPGSPGK | 357.76 ± 0.58 | 449.7 ± 1.2 |
| GFGRGGAESHTFK | 384.5 ± 0.2 | 473.03 ± 1.3 |
| GGQGPPGPQGPIGYPGPR | 419.74 ± 1 | 520.51 ± 0.87 |
| AAHGRGALAEAAR | 390.08 ± 0.35 | 476.13 ± 1.3 |
| HLRGHGPQPPLR | 396.64 | 492.83 ± 0.94 |
| PLPVALQTRLAK | 398.31 ± 0.59 | 471.01 ± 3.4 |
| HFGPVPPSQGRGR | – | 493.79 ± 0.89 |
| VSPASSVDSNIPSSQGYKK | 469.69 ± 3.1 | 542.55 ± 1.8 |
| GPPGAKGNK | 312.31 ± 1.7 | – |
| GRGGAESHTFK | 353.4 ± 0.58 | 440.9 ± 5.6 |
| DHLSDKESK | 345.48 ± 0.71 | 415 ± 3.9 |
| VDVEVPDVSLEGPEGKLK | 461.73 ± 2.9 | 514.03 ± 36 |
| GNPGVGTQGPR | 333.35 ± 8.7 | – |
| PPGFSPFR | 328.84 ± 0.79 | – |
| YIGTGHADTTK | 357.91 ± 0.48 | 452.61 ± 1.1 |
| GFPGIQGRK | 338.49 ± 1.5 | 406.74 ± 2 |
| ATAVVDGAFK | 329.06 ± 0.69 | – |
| LGPPGNPGPSGSPGPK | 383.56 ± 0.58 | 453.1 ± 18 |
| LQNSYQPTNK | 358.91 ± 0.48 | – |

| Substance | collision cross section (charge state: 2) [Å²] | collision cross section (charge state: 3) [Å²] |
| --- | --- | --- |
| LPPGALAHRLPTTGYLVYR | – | 556.45 ± 1.4 |
| LGSASSSHGSIQESHK | – | 509.47 ± 1.3 |
| AYILNLVK | 331.04 ± 1.1 | – |
| PATSYVR | 307.47 ± 0.15 | – |
| TLTPASSPVSSPSKHGDR | – | 512.67 ± 1 |
| GDYDLNAVR | 340.54 ± 0.15 | – |
| LGPPGNPGPSGSPGPKGQK | 422.18 ± 1.4 | 483.14 ± 1.2 |
| GEAGPTGPQGEPGVR | 385.03 ± 0.4 | – |
| DYILEGEPGK | 348.93 ± 0.15 | – |
| GRGVGSPEPGPTAPYLGRR | – | 516.55 |
| IFDSEEILAGYK | 391.02 ± 0.47 | – |
| YRGDYDR | 327.87 ± 0.56 | 412.63 ± 6.2 |
| LGVPGLPGYPGR | 354.06 ± 0.41 | – |
| PRTPTAPAVNLAGAR | 406.96 ± 1.8 | 484.37 ± 1.2 |
| DYSAPVNFISAGLKK | 443.09 ± 2.3 | 512.68 ± 2.7 |
| VTPHPSPRGSPLPTPK | 427.24 | 550.88 ± 0.55 |
| GYLGPEQLPDCLK | 401.23 ± 0.16 | – |
| GSIGFPGFPGANGEKGGR | – | 519.37 ± 1.2 |
| FDDTNPEKEEAK | 396.22 ± 1.8 | 501.37 ± 2.2 |
| LSEHATAPTR | 353.05 ± 0.78 | 452.29 ± 0.22 |
| LQEKVESAQSEQK | 416.22 ± 2.1 | 487.5 ± 6.9 |
| YILIPASQQPK | 375.08 ± 0.48 | – |
| HHTLRQAPQPQSSLQR | – | 502.65 ± 0.69 |
| YTAILNQIPSHSSSIR | 475.98 ± 0.82 | 510.98 ± 3.8 |
| ASCLYGQLPK | 363.85 ± 0.6 | – |
| LSESHPDATEDLQR | – | 474.77 ± 1.7 |
| YTAQVDAEEK | 355.03 ± 0.55 | – |

| Substance | collision cross section (charge state: 2) [Å²] | collision cross section (charge state: 3) [Å²] |
| --- | --- | --- |
| EEKPAVTAAPK | 359.42 ± 0.68 | 467.02 ± 0.22 |
| TPNLYIYSKK | 381.12 ± 1.4 | 430.18 ± 4.5 |
| SQLANTEPTK | 350.96 ± 0.68 | – |
| VGLQVVAVKAPGFGDNR | 462.44 ± 2.5 | 487.54 ± 2.5 |
| YTQVGPDHNR | 354.55 ± 0.7 | 423.12 ± 2 |
| FPGVGVLPGVPTGAGVK | 421.12 ± 0.5 | 509.46 ± 1.2 |
| GEQGEPGAPGIR | 347.53 ± 0.79 | – |
| GQDSTIAASEQQVAAR | 416.79 ± 0.66 | 495.1 ± 0.23 |
| VYPSSLSK | 317.31 ± 0.73 | – |
| GRGLPGPAESLR | 364.16 ± 0.25 | 446.18 ± 17 |
| DYSQPTAAATVQDIK | 421.28 ± 0.57 | – |
| SVGGSGGGSFGDNLVTR | 413.69 ± 1.1 | – |
| GTGRGGGGGGGGGAPR | 356.62 | 435.15 ± 5.4 |
| VFSIISSEKELK | 413.02 ± 1.5 | 485.92 ± 5.3 |
| SLKLNTAEDAK | 372.65 ± 1.5 | 469.12 ± 5.3 |
| VLTANSNPSSPSAAKR | 431.51 ± 2 | 517.98 ± 8.8 |
| FGYVDFESAEDLEK | 428.91 ± 0.24 | – |
| ALASIDSKLNQAK | 410.25 ± 2 | 481.52 ± 3.4 |
| VYVGNLGTGAGK | 357.65 ± 0.15 | – |
| PGGEGPQCEKTTDVK | 411.04 ± 2 | 465.58 ± 3.8 |
| ILDLKTGTVK | 361.56 ± 1.2 | 442.8 ± 7.1 |
| GDKGDAGEPGR | 331.44 ± 0.79 | 419.58 ± 2 |
| STNVTVAAARGIK | 399.07 ± 1.1 | 480.75 ± 3.1 |
| SRFYSGFNSR | 370.83 ± 0.54 | 436.82 ± 3.8 |
| VGIDTPDIDIHGPEGKLK | 461.05 ± 2.5 | 538.36 ± 1.9 |
| DDSFLGKLGGTLAR | 410.69 ± 1.4 | 475.25 ± 2.7 |
